The record followed here is article PMC1557813 (Nucleic Acids Research, 2006).

First the molecules themselves.
T1: GST–PAH1 (amino acids 34–108) (mouse (as mSin3b), UniProt Q62141 34-108)
T1 sequence (looked up): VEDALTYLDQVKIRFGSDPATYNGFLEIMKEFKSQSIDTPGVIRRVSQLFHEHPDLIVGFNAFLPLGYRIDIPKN

The test has as its target T1, GST–PAH1 (amino acids 34–108). The experiment in a line: pull-down.
For SAAMGSAEFEAAVALLFLSEE [protG-P1-8 Leu12 to alanine], the binding result is reported as “binds”.

In the case of EGDWLFFVLLVGLL [protG-P1-1 (P1-1 fused to the GB1 domain of streptococcal protein G)], the binding result is given as “binds”. As for SAAMGSAEAEALVALLFLSEE [protG-P1-8 Phe9 to alanine], the binding result is on record as “binds”. As to SAAMGSAEFEALVALLFLSEE [protG-P1-8 (P1-8 fused to the GB1 domain of streptococcal protein G)], the binding result is “binds”. With SAAMGSAEFEALAALLFLSEE [protG-P1-8 Val13 to alanine] the entry was “binds”.
